Target: T1, p75 (endogenous, mouse) (Mus musculus, UniProt Q9Z0W1 32-427)
T1 construct: Endogenous p75 of P7 mouse cerebellum and of cerebellar granule neurons; also called p75NTR
T1 sequence: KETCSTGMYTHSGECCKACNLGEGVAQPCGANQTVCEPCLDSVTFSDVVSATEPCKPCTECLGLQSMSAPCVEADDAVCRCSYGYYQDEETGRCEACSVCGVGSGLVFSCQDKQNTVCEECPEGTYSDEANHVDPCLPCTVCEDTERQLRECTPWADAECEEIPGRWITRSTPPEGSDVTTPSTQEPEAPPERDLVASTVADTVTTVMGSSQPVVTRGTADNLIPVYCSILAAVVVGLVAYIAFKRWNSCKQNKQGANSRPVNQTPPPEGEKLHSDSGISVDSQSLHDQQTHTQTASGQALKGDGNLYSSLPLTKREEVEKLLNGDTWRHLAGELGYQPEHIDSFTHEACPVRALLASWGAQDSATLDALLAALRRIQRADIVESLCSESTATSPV
Assay: immunoprecipitation of P7 mouse cerebellar proteins with anti-p45 antibodies, immunoblot with anti-p75 antibodies

binding result: binds
B1: full-length p45 (p45-FL) (receptor)
chain: MLYNVSKGVVYSDTALQGQDGDREGMWVGAGGALAPNTSSLFPPEPPGASSNIIPVYCALLATVILGLLAYVAFKCWRSHKQRQQLAKARTVELGDPDRDQRRGDSNVFVDSPPSLEPCIPSQGPHPDLGCQLYLHIPQQQQEEVQRLLMMGEPAKGWQELAGHLGYQAEAVETMACDQMPAYTLLRNWAAQEGNRATLRVLEDALAAIGREDVVQVLSSPAESSSVV
notes: Untagged full-length p45 expressed in HEK293 cells or from transfected capped RNA in CGNs; Also used here for endogenous p45 of P7 mouse cerebellum; also called PLAIDD; NRADD
